Test results as given in patent US20140179612A1.

Molecular target: αVβ3 integrin receptor on choroid endothelial cells (RF/6A)
Test: cell-based or functional assay

| IC50, MTT assay of RF/6A choroid endothelial cell proliferation induced by VEGF 165 (50 ng/ml) | inhibition of RF/6A cell proliferation at 15.6 nM (MTT assay) | Substance |
| --- | --- | --- |
| 5.97 nM | 84% | transferrin-tumstatin protein (recombinant fusion, secreted from ARPE cells, histidine tagged) (from UniProt P02787 20-698; Q01955 1426-1670) |
| 186 nM | – | tumstatin protein (recombinant, secreted from ARPE cells, histidine tagged) (from UniProt Q01955 1426-1670) (ligand) |
